Data reported in the Human Domainome abundance scans (Beltran et al. 2025).
± gives the uncertainty stated by the source.

B1: SH3 and PX domain-containing protein 2B, residues 155 to 209; numbered along this chain, A1X283 (parent)
chain: EQYVVVANYQKQESSEISLSVGQVVDIIEKNESGWWFVSTAEEQGWVPATCLEGQ

Variants of: B1
Assay: abundance fitness (aPCA) (normalised: wild type 0, dead -1); higher = more abundant; growth selection in yeast, the domain comes from the species named
Conditions: Homo sapiens

Variant	abundance fitness
EQYVVVANYQKQESSEISLSVGQVVDIIEKNESGYWFVSTAEEQGWVPATCLEGQ [W35Y]	-0.22 ± 0.15
EQYVVVANYQKQESSEISLSVGQVVDIIEKNESGGWFVSTAEEQGWVPATCLEGQ [W35G]	-0.398 ± 0.074
EQYVVVANYQKQESSEISLSVGQVVDIIEKNESGHWFVSTAEEQGWVPATCLEGQ [W35H]	0.013 ± 0.12
EQYVVVANYQKQESSEISLSVGQVVDIIEKNESGFWFVSTAEEQGWVPATCLEGQ [W35F]	-0.005 ± 0.23
EQYVVVANYQKQESSEISLSVGQVVDIIEKNESGPWFVSTAEEQGWVPATCLEGQ [W35P]	-0.621 ± 0.1
EQYVVVANYQKQESSEISLSVGQVVDIIEKNESGVWFVSTAEEQGWVPATCLEGQ [W35V]	-0.118 ± 0.07
EQYVVVANYQKQESSEISLSVGQVVDIIEKNESGAWFVSTAEEQGWVPATCLEGQ [W35A]	-0.172 ± 0.072
EQYVVVANYQKQESSEISLSVGQVVDIIEKNESGNWFVSTAEEQGWVPATCLEGQ [W35N]	-0.193 ± 0.18
EQYVVVANYQKQESSEISLSVGQVVDIIEKNESGQWFVSTAEEQGWVPATCLEGQ [W35Q]	0.04 ± 0.14
EQYVVVANYQKQESSEISLSVGQVVDIIEKNESGRWFVSTAEEQGWVPATCLEGQ [W35R]	0.045 ± 0.073
EQYVVVANYQKQESSEISLSVGQVVDIIEKNESGSWFVSTAEEQGWVPATCLEGQ [W35S]	-0.04 ± 0.066
EQYVVVANYQKQESSEISLSVGQVVDIIEKNESGTWFVSTAEEQGWVPATCLEGQ [W35T]	-0.191 ± 0.09
EQYVVVANYQKQESSEISLSVGQVVDIIEKNESGIWFVSTAEEQGWVPATCLEGQ [W35I]	-0.195 ± 0.13
EQYVVVANYQKQESSEISLSVGQVVDIIEKNESGEWFVSTAEEQGWVPATCLEGQ [W35E]	-0.173 ± 0.1
EQYVVVANYQKQESSEISLSVGQVVDIIEKNESGMWFVSTAEEQGWVPATCLEGQ [W35M]	0.027 ± 0.085
EQYVVVANYQKQESSEISLSVGQVVDIIEKNESGLWFVSTAEEQGWVPATCLEGQ [W35L]	-0.073 ± 0.069
EQYVVVANYQKQESSEISLSVGQVVDIIEKNESGCWFVSTAEEQGWVPATCLEGQ [W35C]	-0.062 ± 0.089
EQYVVVANYQKQESSEISLSVGQVVDIIEKNESGDWFVSTAEEQGWVPATCLEGQ [W35D]	-0.182 ± 0.14
EQYVVVANYQKQESSEISLSVGQVVDIIEKNESAWWFVSTAEEQGWVPATCLEGQ [G34A]	-0.189 ± 0.075
EQYVVVANYQKQESSEISLSVGQVVDIIEKNESPWWFVSTAEEQGWVPATCLEGQ [G34P]	-0.249 ± 0.1
EQYVVVANYQKQESSEISLSVGQVVDIIEKNESNWWFVSTAEEQGWVPATCLEGQ [G34N]	-0.538 ± 0.22
EQYVVVANYQKQESSEISLSVGQVVDIIEKNESYWWFVSTAEEQGWVPATCLEGQ [G34Y]	-0.492 ± 0.16
EQYVVVANYQKQESSEISLSVGQVVDIIEKNESRWWFVSTAEEQGWVPATCLEGQ [G34R]	-0.306 ± 0.07
EQYVVVANYQKQESSEISLSVGQVVDIIEKNESVWWFVSTAEEQGWVPATCLEGQ [G34V]	-0.676 ± 0.11

Variant	abundance fitness
EQYVVVANYQKQESSEISLSVGQVVDIIEKNESMWWFVSTAEEQGWVPATCLEGQ [G34M]	-0.216 ± 0.1
EQYVVVANYQKQESSEISLSVGQVVDIIEKNESKWWFVSTAEEQGWVPATCLEGQ [G34K]	-0.169 ± 0.14
EQYVVVANYQKQESSEISLSVGQVVDIIEKNESEWWFVSTAEEQGWVPATCLEGQ [G34E]	-0.147 ± 0.081
EQYVVVANYQKQESSEISLSVGQVVDIIEKNESHWWFVSTAEEQGWVPATCLEGQ [G34H]	-0.327 ± 0.14
EQYVVVANYQKQESSEISLSVGQVVDIIEKNESTWWFVSTAEEQGWVPATCLEGQ [G34T]	-0.393 ± 0.092
EQYVVVANYQKQESSEISLSVGQVVDIIEKNESLWWFVSTAEEQGWVPATCLEGQ [G34L]	-0.423 ± 0.078
EQYVVVANYQKQESSEISLSVGQVVDIIEKNESIWWFVSTAEEQGWVPATCLEGQ [G34I]	-0.579 ± 0.15
EQYVVVANYQKQESSEISLSVGQVVDIIEKNESWWWFVSTAEEQGWVPATCLEGQ [G34W]	-0.708 ± 0.13
EQYVVVANYQKQESSEISLSVGQVVDIIEKNESFWWFVSTAEEQGWVPATCLEGQ [G34F]	-0.598 ± 0.16
EQYVVVANYQKQESSEISLSVGQVVDIIEKNESSWWFVSTAEEQGWVPATCLEGQ [G34S]	-0.208 ± 0.083
EQYVVVANYQKQESSEISLSVGQVVDIIEKNESQWWFVSTAEEQGWVPATCLEGQ [G34Q]	-0.458 ± 0.2
EQYVVVANYQKQESSEISLSVGQVVDIIEKNESDWWFVSTAEEQGWVPATCLEGQ [G34D]	-0.125 ± 0.091
EQYVVVANYQKQESSEISLSVGQVVDIIEKNESGWAFVSTAEEQGWVPATCLEGQ [W36A]	-0.104 ± 0.084
EQYVVVANYQKQESSEISLSVGQVVDIIEKNESGWIFVSTAEEQGWVPATCLEGQ [W36I]	-0.139 ± 0.16
EQYVVVANYQKQESSEISLSVGQVVDIIEKNESGWRFVSTAEEQGWVPATCLEGQ [W36R]	-0.462 ± 0.084
EQYVVVANYQKQESSEISLSVGQVVDIIEKNESGWQFVSTAEEQGWVPATCLEGQ [W36Q]	-0.71 ± 0.12
EQYVVVANYQKQESSEISLSVGQVVDIIEKNESGWSFVSTAEEQGWVPATCLEGQ [W36S]	-0.211 ± 0.079
EQYVVVANYQKQESSEISLSVGQVVDIIEKNESGWCFVSTAEEQGWVPATCLEGQ [W36C]	-0.11 ± 0.13
EQYVVVANYQKQESSEISLSVGQVVDIIEKNESGWGFVSTAEEQGWVPATCLEGQ [W36G]	-0.767 ± 0.085
EQYVVVANYQKQESSEISLSVGQVVDIIEKNESGWHFVSTAEEQGWVPATCLEGQ [W36H]	-0.429 ± 0.17
EQYVVVANYQKQESSEISLSVGQVVDIIEKNESGWNFVSTAEEQGWVPATCLEGQ [W36N]	-0.367 ± 0.17
EQYVVVANYQKQESSEISLSVGQVVDIIEKNESGWKFVSTAEEQGWVPATCLEGQ [W36K]	-0.889 ± 0.27
EQYVVVANYQKQESSEISLSVGQVVDIIEKNESGWTFVSTAEEQGWVPATCLEGQ [W36T]	-0.234 ± 0.098
EQYVVVANYQKQESSEISLSVGQVVDIIEKNESGWMFVSTAEEQGWVPATCLEGQ [W36M]	-0.202 ± 0.13
